In the RNAGym collection of RNA variant scans (doi:10.1093/molbev/msab373):

B1: Azoarcus group I ribozyme (parent)
chain: GUGCCUUGCGCCGGGAAACCACGCAAGGGAUGGUGUCAAAUUCGGCGAAACCUAAGCGCCCGCCCGGGCGUAUGGCAACGCCGAGCCAAGCUUCGGCGCCUGCGCCGAUGAAGGUGUAGAGACUAGACGGCACCCACCUAAGGCAAACGCUAUGGUGAAGGCAUAGUCCAGGGAGUGGCGAAAGUCACACAAACCGG

Variants of: B1
Test: reverse-splicing fitness (ratio to wild type); higher = more active; in vitro selection; Mg2+ level not given
In short: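 An in vitro group I ribozyme library with randomized positions was T7-transcribed and gel-purified. In triplicate, 10 pmol RNA in EPPS pH 7.5 was reacted with 50 pmoles of a 30-nt RNA substrate for 1 h at 37 °C across several added MgCl2 levels (1–48 mM), then stopped with EDTA. Products were reverse transcribed from a substrate-complementary primer, PCR-amplified and sequenced (HiSeq 4000). Fitness is a variant's read proportion after selection over that before, normalised to wild type.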

Variant	reverse-splicing fitness
C82G A120G A145U C150G C169G U176G	0.00385
C82G A120G A145U C150G C169U	0.01
C82G A120G A145U C150G C169U U176A	0.0125
C82G A120G A145U C150G C169U U176C	0.0129
C82G A120G A145U C150G C169U U176G	0.00487
C82G A120G A145U C150G U176A	0.00666
C82G A120G A145U C150G U176C	0.0103
C82G A120G A145U C150G U176G	0.00404
C82G A120G A145U C150U	0.0229
C82G A120G A145U C150U C169A	0.0199
C82G A120G A145U C150U C169A U176A	0.0161
C82G A120G A145U C150U C169A U176C	0.0133
C82G A120G A145U C150U C169A U176G	0.00467
C82G A120G A145U C150U C169G	0.0343
C82G A120G A145U C150U C169G U176A	0.015
C82G A120G A145U C150U C169G U176C	0.0218
C82G A120G A145U C150U C169G U176G	0.00476
C82G A120G A145U C150U C169U	0.0183
C82G A120G A145U C150U C169U U176A	0.0201
C82G A120G A145U C150U C169U U176C	0.0181
C82G A120G A145U C150U C169U U176G	0.00413

Variant	reverse-splicing fitness
C82G A120G A145U C150U U176A	0.0121
C82G A120G A145U C150U U176C	0.0189
C82G A120G A145U C150U U176G	0.00475
C82G A120G A145U C169A	0.0302
C82G A120G A145U C169A U176A	0.0122
C82G A120G A145U C169A U176C	0.0199
C82G A120G A145U C169A U176G	0.00363
C82G A120G A145U C169G	0.0523
C82G A120G A145U C169G U176A	0.0157
C82G A120G A145U C169G U176C	0.0227
C82G A120G A145U C169G U176G	0.00374
C82G A120G A145U C169U	0.0235
C82G A120G A145U C169U U176A	0.0203
C82G A120G A145U C169U U176C	0.0176
C82G A120G A145U C169U U176G	0.00349
C82G A120G A145U U176A	0.0157
C82G A120G A145U U176C	0.0191
C82G A120G A145U U176G	0.0047
C82G A120G C150A	0.00962
C82G A120G C150A C169A	0.0117
C82G A120G C150A C169A U176A	0.0208

Variant	reverse-splicing fitness
C82G A120G C150A C169A U176C	0.0244
C82G A120G C150A C169A U176G	0.00604
C82G A120G C150A C169G	0.0133
C82G A120G C150A C169G U176A	0.0215
C82G A120G C150A C169G U176C	0.0228
C82G A120G C150A C169G U176G	0.00479
C82G A120G C150A C169U	0.00945
C82G A120G C150A C169U U176A	0.0248
C82G A120G C150A C169U U176C	0.02
C82G A120G C150A C169U U176G	0.00754
C82G A120G C150A U176A	0.0119
C82G A120G C150A U176C	0.0195
C82G A120G C150A U176G	0.0105
C82G A120G C150G	0.00725
C82G A120G C150G C169A	0.00981
C82G A120G C150G C169A U176A	0.0109
C82G A120G C150G C169A U176C	0.0102
C82G A120G C150G C169A U176G	0.00588
C82G A120G C150G C169G	0.00959
C82G A120G C150G C169G U176A	0.00768
C82G A120G C150G C169G U176C	0.00511

Variant	reverse-splicing fitness
C82G A120G C150G C169G U176G	0.00466
C82G A120G C150G C169U	0.00956
C82G A120G C150G C169U U176A	0.0113
C82G A120G C150G C169U U176C	0.0158
C82G A120G C150G C169U U176G	0.00645
C82G A120G C150G U176A	0.00652
C82G A120G C150G U176C	0.0105
C82G A120G C150G U176G	0.00387
C82G A120G C150U	0.0196
C82G A120G C150U C169A	0.0193
C82G A120G C150U C169A U176A	0.0184
C82G A120G C150U C169A U176C	0.0189
C82G A120G C150U C169A U176G	0.00527
C82G A120G C150U C169G	0.0318
C82G A120G C150U C169G U176A	0.0177
C82G A120G C150U C169G U176C	0.0246
C82G A120G C150U C169G U176G	0.00485
C82G A120G C150U C169U	0.0164
C82G A120G C150U C169U U176A	0.023
C82G A120G C150U C169U U176C	0.0203
C82G A120G C150U C169U U176G	0.00651
